According to US6617117:

Key:
[1] = target: GST-MAPKAP-K2(5-400), P49137
GST-cJun(1-194), P05412 = target: T1, GST-cJun(1-194), P05412
T1 chain: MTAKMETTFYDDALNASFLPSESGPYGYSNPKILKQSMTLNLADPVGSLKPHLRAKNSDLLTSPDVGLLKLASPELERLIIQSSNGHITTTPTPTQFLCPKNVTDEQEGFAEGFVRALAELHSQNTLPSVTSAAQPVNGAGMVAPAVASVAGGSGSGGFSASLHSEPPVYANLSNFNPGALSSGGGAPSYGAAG

[2] = target: T2, GST-SAP1(267-431), P28324
T2 chain: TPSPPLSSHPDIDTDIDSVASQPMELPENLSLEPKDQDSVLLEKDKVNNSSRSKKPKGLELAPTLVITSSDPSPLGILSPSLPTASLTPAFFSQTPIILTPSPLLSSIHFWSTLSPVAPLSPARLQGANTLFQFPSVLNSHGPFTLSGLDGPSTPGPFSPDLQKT

[3] = target: GST-Elk1(307-428) [GST: P08515]
[4] = target: GST-SAP2(221-417) [GST: P08515]
[5] = target: MAPKAP-K2 (substrate of Table 1, construct not stated), P49137
GST-ATF2(19-96), P15336 = target: T3, GST-ATF2(19-96), P15336
T3 chain: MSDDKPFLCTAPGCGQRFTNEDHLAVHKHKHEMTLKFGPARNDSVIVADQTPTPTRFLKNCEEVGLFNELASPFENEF

rat GST-SAPK3, Q63538 = target: T4, rat GST-SAPK3, Q63538
T4 chain: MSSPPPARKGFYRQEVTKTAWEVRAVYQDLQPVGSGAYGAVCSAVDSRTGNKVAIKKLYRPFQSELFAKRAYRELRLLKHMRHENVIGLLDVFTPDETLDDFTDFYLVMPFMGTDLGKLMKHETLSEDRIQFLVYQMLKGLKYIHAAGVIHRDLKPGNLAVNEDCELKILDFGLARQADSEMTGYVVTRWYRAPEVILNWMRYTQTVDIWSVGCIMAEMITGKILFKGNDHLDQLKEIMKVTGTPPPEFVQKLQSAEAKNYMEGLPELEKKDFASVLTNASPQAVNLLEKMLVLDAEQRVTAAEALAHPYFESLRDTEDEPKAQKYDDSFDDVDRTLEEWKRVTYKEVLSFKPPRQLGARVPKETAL

[6] = target: T5, MalE-Mpk2, the Xenopus homologue of SAPK2a, P47812
T5 chain: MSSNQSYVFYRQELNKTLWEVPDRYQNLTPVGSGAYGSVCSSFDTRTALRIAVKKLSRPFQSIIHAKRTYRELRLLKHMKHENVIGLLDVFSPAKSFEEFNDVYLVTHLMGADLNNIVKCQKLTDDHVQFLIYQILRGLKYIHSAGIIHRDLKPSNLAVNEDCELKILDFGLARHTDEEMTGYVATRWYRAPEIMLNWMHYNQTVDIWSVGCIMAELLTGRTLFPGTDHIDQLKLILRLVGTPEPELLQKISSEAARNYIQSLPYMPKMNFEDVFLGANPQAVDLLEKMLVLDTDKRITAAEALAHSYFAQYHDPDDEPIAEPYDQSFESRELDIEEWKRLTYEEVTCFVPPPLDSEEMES

human GST-SAPK4 = target: T6, human GST-SAPK4
T6 chain: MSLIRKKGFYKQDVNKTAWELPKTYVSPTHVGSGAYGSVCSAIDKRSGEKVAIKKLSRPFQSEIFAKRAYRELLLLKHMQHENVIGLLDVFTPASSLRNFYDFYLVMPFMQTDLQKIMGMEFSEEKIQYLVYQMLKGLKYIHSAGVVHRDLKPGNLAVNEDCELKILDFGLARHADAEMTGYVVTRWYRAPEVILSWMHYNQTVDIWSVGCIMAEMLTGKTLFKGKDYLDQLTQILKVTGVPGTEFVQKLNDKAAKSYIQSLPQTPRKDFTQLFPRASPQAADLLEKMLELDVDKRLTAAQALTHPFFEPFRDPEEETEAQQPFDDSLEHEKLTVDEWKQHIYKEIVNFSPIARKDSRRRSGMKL

[7] = target: GST-MAPKAP-K2(46-400), P49137
Sequence of GST-MAPKAP-K2(46-400), P49137 (P49137 46-400): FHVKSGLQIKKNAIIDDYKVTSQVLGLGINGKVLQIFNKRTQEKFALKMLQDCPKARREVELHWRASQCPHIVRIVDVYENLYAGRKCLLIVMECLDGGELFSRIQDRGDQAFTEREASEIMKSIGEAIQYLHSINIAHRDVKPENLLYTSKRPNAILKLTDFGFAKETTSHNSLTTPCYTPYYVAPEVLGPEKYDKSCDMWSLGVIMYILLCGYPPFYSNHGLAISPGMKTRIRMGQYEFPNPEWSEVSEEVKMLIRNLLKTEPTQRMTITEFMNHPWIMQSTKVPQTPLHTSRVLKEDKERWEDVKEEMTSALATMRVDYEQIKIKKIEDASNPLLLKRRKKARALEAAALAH

Sequence of MAPKAP-K2 (substrate of Table 1, construct not stated), P49137 (P49137 46-400): as above
Sequence of GST-MAPKAP-K3, Q16644 (Q16644 whole entry, looked up): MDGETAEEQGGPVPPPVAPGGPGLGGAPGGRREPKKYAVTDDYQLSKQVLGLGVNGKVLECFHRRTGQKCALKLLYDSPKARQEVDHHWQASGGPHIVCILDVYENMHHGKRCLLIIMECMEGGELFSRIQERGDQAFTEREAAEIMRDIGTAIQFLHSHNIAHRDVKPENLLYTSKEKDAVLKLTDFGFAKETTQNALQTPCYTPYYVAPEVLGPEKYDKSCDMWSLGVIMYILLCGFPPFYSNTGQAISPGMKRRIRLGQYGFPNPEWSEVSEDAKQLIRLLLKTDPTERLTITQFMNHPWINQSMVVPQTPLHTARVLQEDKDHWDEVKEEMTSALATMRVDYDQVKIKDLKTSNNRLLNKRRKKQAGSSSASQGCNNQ
Sequence of GST-MAPKAP-K2(5-400), P49137 (P49137 5-400): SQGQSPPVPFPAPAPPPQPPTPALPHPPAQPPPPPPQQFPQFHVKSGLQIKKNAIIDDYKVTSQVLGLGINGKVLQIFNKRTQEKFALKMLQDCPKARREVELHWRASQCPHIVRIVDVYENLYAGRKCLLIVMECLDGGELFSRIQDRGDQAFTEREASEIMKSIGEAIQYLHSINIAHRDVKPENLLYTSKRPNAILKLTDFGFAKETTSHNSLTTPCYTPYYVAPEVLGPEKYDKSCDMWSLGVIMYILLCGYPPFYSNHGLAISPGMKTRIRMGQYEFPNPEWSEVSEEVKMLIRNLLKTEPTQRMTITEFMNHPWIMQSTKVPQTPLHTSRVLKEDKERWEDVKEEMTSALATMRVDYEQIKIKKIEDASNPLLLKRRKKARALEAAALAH

B1: human GST-SAPK4 (protein)
chain: T6 chain
activation of MAPKAP-K3 (initial rate and half-time for maximal activation) (GST-MAPKAP-K3, Q16644): 20 times slower
rate of phosphorylation of substrate (1 µM) relative to MBP (% of rate with MBP) (GST-MAPKAP-K3, Q16644): 18
activation of MAPKAP-K2 (initial rate and half-time for maximal activation) [1]: 20 times slower
rate of phosphorylation of substrate (1 µM) relative to MBP (% of rate with MBP) (GST-cJun(1-194), P05412): 6
rate of phosphorylation of substrate (1 µM) relative to MBP (% of rate with MBP) [2]: 62
rate of phosphorylation of substrate (1 µM) relative to MBP (% of rate with MBP) [3]: 175
rate of phosphorylation of substrate (1 µM) relative to MBP (% of rate with MBP) [4]: 8
rate of phosphorylation of substrate (1 µM) relative to MBP (% of rate with MBP) [5]: 28

B2: human GST-SAPK2b (protein)
chain: MSGPRAGFYRQELNKTVWEVPQRLQGLRPVGSGAYGSVCSAYDARLRQKVAVKKLSRPFQSLIHARRTYRELRLLKHLKHENVIGLLDVFTPATSIEDFSEVYLVTTLMGADLNNIVKCQALSDEHVQFLVYQLLRGLKYIHSAGIIHRDLKPSNVAVNEDCELRILDFGLARQADEEMTGYVATRWYRAPEIMLNWMHYNQTVDIWSVGCIMAELLQGKALFPGSDYIDQLKRIMEVVGTPSPEVLAKISSEHARTYIQSLPPMPQKDLSSIFRGANPLAIDLLGRMLVLDSDQRVSAAEALAHAYFSQYHDPEDEPEAEPYDESVEAKERTLEEWKELTYQEVLSFKPPEPPKPPGSLEIEQ
rate of phosphorylation of substrate (1 µM) relative to MBP (% of rate with MBP) (GST-MAPKAP-K3, Q16644): 66
rate of phosphorylation of substrate (1 µM) relative to MBP (% of rate with MBP) (GST-ATF2(19-96), P15336): 62
rate of phosphorylation of substrate (1 µM) relative to MBP (% of rate with MBP) (GST-cJun(1-194), P05412): 7
rate of phosphorylation of substrate (1 µM) relative to MBP (% of rate with MBP) [2]: 27
rate of phosphorylation of substrate (1 µM) relative to MBP (% of rate with MBP) [3]: 136
rate of phosphorylation of substrate (1 µM) relative to MBP (% of rate with MBP) [4]: 18
rate of phosphorylation of substrate (1 µM) relative to MBP (% of rate with MBP) [5]: 83

B3: SKK3 purified from rabbit skeletal muscle (protein)
chain: MSQSKGKKRNPGLKIPKEAFEQPQTSSTPPRDLDSKACISIGNQNFEVKADDLEPIMELGRGAYGVVEKMRHVPSGQIMAVKRIRATVNSQEQKRLLMDLDISMRTVDCPFTVTFYGALFREGDVWICMELMDTSLDKFYKQVIDKGQTIPEDILGKIAVSIVKALEHLHSKLSVIHRDVKPSNVLINTLGQVKMCDFGISGYLVDSVAKTIDAGCKPYMAPERINPELNQKGYSVKSDIWSLGITMIELAILRFPYDSWGTPFQQLKQVVEEPSPQLPADKFSAEFVDFTSQCLKKNSKERPTYPELMQHPFFTVHESKATDVASFVKLILGD
activation of SAPK3 (MBP kinase activity) in vitro (rat GST-SAPK3, Q63538): SAPK3 was activated in vitro by a highly purified preparation of SKK3 from skeletal muscle
activation of SAPK2 (MBP kinase activity) in vitro [6]: The rate of activation of SAPK3 by SKK3 was similar to that of SAPK2
32P phosphorylation, phosphoamino acid analysis (GST-SAPK4(D168A)): the inactive SAPK4 mutant could only be phosphorylated on tyrosine and not on threonine
activation of SAPK4 (MBP kinase activity) in vitro (human GST-SAPK4): SAPK4 was activated in vitro by a highly purified preparation of SKK3 from skeletal muscle
phosphorylation stoichiometry at plateau (human GST-SAPK4): reached a plateau at ˜1.6 mol/mol subunit
rate of activation compared with SAPK2a (human GST-SAPK4): occurred two- to three-fold more slowly than that of SAPK2a

B4: rat GST-SAPK3 (protein)
chain: T4 chain
activation of MAPKAP-K3 (initial rate and half time for maximal activation) (GST-MAPKAP-K3, Q16644): 20 times slower
rate of phosphorylation of substrate (1 µM) relative to MBP (% of rate with MBP) (GST-MAPKAP-K3, Q16644): 20
phosphorylation sites on ATF2 (32P, mutants, phosphoamino acid analysis) (GST-ATF2(19-96), P15336): SAPK2 and SAPK3 phosphorylate ATF2 at Thr69 and Thr-71, and that only SAPK3 phosphorylates Ser-90
rate of phosphorylation of substrate (1 µM) relative to MBP (relative to MBP (=100)) (GST-ATF2(19-96), P15336): 107
rate of phosphorylation of substrate (1 µM) relative to MBP (relative to MBP (=100)) (GST-cJun(1-194), P05412): 2
rate of phosphorylation of substrate (1 µM) relative to MBP (relative to MBP (=100)) [2]: 108
rate of phosphorylation of substrate (1 µM) relative to MBP (relative to MBP (=100)) [3]: 181
rate of phosphorylation of substrate (1 µM) relative to MBP (relative to MBP (=100)) [4]: 20
activation of MAPKAP-K2 (initial rate and half time for maximal activation) [7]: 20 times slower
rate of phosphorylation of substrate (1 µM) relative to MBP (% of rate with MBP) [5]: 25

B5: MalE-Mpk2, the Xenopus homologue of SAPK2a (protein)
chain: T5 chain
rate of phosphorylation of substrate (1 µM) relative to MBP (% of rate with MBP) (GST-MAPKAP-K3, Q16644): 87
phosphorylation sites on ATF2 (32P, mutants, phosphoamino acid analysis) (GST-ATF2(19-96), P15336): SAPK2 and SAPK3 phosphorylate ATF2 at Thr69 and Thr-71, and that only SAPK3 phosphorylates Ser-90
rate of phosphorylation of substrate (1 µM) relative to MBP (% of rate with MBP) (GST-ATF2(19-96), P15336): 40
rate of phosphorylation of substrate (1 µM) relative to MBP (relative to MBP (=100)) (GST-ATF2(19-96), P15336): 86
rate of phosphorylation of substrate (1 µM) relative to MBP (% of rate with MBP) (GST-cJun(1-194), P05412): 4
rate of phosphorylation of substrate (1 µM) relative to MBP (relative to MBP (=100)) (GST-cJun(1-194), P05412): 2
rate of phosphorylation of substrate (1 µM) relative to MBP (% of rate with MBP) [2]: 25
rate of phosphorylation of substrate (1 µM) relative to MBP (relative to MBP (=100)) [2]: 55
rate of phosphorylation of substrate (1 µM) relative to MBP (% of rate with MBP) [3]: 90
rate of phosphorylation of substrate (1 µM) relative to MBP (relative to MBP (=100)) [3]: 122
rate of phosphorylation of substrate (1 µM) relative to MBP (% of rate with MBP) [5]: 90
